Drawing on paper PMC8096239, “Nse5/6 is a negative regulator of the ATPase activity of the Smc5/6 complex”, this text covers binding result and Kd for 1 molecule.

The target of data set [1] is Smc5/6 core complex (S5-S6-N2) (Saccharomyces cerevisiae, UniProt Q08204;Q12749;P38632 1-1093;1-1114;1-267). Kind of data set: EMSA; some aggregated material in wells at high concentration; EMSA: 200 nM hairpin, 20 mM HEPES-NaOH pH 7.5, 150 mM NaCl, 0.5 mM TCEP, 30 min at 4 C; 0.8% TBE-agarose gel, 50 V, 3 h, 4 C. Conditions: protein: recombinant, tags: Smc5-FLAG, Smc6-AVI-HIS, HA-Nse2, copies: 1;1;1, label: fluorescein on position 5 of thymine, 6-carbon spacer, 48 bp stem, 4 nt loop AATA, blunt end.
Smc5/6 core complex (S5-S6-N2), sequence (Q08204 whole entry, chain 1 of 3): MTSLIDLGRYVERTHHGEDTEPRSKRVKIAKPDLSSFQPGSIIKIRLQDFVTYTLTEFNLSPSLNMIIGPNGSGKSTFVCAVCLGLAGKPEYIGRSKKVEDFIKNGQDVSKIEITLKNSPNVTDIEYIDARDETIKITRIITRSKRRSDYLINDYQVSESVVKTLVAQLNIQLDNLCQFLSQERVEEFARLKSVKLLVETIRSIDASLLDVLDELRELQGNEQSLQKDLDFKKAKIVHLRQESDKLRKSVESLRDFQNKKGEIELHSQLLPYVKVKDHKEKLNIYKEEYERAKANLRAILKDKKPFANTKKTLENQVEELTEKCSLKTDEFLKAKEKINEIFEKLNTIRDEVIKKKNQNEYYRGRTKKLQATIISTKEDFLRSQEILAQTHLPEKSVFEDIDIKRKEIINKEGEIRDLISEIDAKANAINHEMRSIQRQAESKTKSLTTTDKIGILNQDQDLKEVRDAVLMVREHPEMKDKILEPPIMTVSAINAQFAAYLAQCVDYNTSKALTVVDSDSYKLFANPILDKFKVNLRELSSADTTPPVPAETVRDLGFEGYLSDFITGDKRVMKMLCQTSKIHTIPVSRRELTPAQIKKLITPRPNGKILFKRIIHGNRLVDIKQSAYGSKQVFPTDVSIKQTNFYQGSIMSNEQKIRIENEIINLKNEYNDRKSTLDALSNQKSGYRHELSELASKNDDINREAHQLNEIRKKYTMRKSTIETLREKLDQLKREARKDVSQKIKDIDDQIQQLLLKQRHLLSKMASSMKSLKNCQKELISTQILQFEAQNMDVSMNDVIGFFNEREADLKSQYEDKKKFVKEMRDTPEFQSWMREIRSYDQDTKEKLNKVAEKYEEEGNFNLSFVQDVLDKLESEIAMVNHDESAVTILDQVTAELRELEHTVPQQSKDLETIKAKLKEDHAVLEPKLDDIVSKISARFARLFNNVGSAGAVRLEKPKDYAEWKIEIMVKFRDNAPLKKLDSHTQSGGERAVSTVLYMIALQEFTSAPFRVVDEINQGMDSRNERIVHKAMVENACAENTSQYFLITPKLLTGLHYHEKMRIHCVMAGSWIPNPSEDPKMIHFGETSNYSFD
Smc5/6 core complex (S5-S6-N2), sequence (Q12749 whole entry, chain 2 of 3): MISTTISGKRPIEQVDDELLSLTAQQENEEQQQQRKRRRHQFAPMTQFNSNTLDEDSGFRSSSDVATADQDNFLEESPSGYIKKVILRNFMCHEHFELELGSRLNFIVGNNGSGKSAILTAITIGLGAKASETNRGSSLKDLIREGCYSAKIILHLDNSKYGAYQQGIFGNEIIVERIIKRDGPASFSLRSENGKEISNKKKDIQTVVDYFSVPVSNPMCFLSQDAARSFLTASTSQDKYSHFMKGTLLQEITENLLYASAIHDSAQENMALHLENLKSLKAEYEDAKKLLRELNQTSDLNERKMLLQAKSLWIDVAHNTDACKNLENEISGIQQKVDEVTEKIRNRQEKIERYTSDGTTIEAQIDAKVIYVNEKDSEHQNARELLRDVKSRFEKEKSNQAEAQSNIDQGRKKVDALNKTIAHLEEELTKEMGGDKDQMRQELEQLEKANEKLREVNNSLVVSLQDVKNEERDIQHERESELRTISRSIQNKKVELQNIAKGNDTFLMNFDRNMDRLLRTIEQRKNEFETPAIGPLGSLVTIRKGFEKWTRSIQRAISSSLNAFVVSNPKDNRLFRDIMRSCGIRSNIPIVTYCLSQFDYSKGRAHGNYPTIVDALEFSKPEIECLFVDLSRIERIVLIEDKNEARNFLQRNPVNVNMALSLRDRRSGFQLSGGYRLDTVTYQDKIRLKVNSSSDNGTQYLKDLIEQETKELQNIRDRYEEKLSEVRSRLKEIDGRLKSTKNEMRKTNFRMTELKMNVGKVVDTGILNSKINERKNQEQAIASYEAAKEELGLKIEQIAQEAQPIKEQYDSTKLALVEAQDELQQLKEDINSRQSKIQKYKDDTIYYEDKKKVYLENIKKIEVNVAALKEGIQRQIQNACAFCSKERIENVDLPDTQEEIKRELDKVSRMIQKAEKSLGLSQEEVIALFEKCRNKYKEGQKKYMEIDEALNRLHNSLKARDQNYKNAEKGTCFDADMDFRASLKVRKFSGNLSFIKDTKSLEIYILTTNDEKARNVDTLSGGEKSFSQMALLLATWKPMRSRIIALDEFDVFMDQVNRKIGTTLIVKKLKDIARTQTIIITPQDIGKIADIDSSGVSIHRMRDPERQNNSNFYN
Smc5/6 core complex (S5-S6-N2), sequence (P38632 whole entry, chain 3 of 3): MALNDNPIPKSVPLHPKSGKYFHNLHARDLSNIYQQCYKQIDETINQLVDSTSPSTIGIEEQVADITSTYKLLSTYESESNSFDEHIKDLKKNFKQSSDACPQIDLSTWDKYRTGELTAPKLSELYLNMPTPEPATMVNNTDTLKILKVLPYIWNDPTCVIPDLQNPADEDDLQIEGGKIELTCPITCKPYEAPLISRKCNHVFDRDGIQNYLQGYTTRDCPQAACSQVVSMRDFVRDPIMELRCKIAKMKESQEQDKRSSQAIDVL

Data set [2] has as its target Smc5/6 holo-complex (S5-S6-N2/N1-N3-N4) (Saccharomyces cerevisiae, UniProt Q08204;Q12749;P38632;Q07913;Q05541;P43124 1-1093;1-1114;1-267;1-336;1-303;1-402). Kind of data set: EMSA; Hill slope 3.5; 200 nM DNA; two shifted species; 3 repeats; EMSA: 200 nM hairpin, 20 mM HEPES-NaOH pH 7.5, 150 mM NaCl, 0.5 mM TCEP, 30 min at 4 C; 0.8% TBE-agarose gel, 50 V, 3 h, 4 C. To be noted: protein: recombinant, tags: Smc5-FLAG, Smc6-AVI-HIS, HA-Nse2, HIS-TEV-Nse1, Nse3 untagged, Nse4-HALO-Myc, copies: 1;1;1;1;1;1, label: fluorescein on position 5 of thymine, 6-carbon spacer, 48 bp stem, 4 nt loop AATA, blunt end.

The target in data set [3] is T1, Nse5/6 (Saccharomyces cerevisiae, UniProt Q03718;P40026 1-556;1-464).
T1 sequence 1: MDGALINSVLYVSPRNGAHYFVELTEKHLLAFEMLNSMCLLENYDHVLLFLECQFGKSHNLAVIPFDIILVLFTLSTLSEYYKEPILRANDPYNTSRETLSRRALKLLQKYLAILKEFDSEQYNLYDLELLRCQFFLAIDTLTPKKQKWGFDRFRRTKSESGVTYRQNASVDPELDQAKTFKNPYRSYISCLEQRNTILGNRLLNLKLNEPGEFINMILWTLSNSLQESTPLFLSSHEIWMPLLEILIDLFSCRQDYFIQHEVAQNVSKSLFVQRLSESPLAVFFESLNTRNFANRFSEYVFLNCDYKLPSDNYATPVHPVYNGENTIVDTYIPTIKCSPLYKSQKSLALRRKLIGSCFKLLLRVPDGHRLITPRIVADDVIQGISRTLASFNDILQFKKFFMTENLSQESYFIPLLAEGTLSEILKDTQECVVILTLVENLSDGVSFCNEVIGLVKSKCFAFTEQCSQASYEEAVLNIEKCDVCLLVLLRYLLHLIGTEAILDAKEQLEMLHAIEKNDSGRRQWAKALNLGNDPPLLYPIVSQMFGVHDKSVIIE
T1 sequence 2: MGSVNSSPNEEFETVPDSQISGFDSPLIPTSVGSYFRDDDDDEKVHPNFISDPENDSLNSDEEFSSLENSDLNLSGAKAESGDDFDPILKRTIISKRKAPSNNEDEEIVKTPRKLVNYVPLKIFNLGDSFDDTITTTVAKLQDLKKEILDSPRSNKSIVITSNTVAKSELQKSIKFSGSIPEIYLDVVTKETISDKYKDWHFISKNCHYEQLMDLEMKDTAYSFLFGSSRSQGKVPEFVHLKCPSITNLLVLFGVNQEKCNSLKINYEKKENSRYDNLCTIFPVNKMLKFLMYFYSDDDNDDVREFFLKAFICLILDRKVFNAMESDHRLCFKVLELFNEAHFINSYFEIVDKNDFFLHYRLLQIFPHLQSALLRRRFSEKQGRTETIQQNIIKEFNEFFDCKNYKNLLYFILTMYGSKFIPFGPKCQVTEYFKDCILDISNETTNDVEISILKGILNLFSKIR
Kind of data set: EMSA; more extensive concentration range; EMSA: 200 nM hairpin, 20 mM HEPES-NaOH pH 7.5, 150 mM NaCl, 0.5 mM TCEP, 30 min at 4 C; 0.8% TBE-agarose gel, 50 V, 3 h, 4 C. To be noted: protein: recombinant, tags: Nse5-C.tag (GAAEPEA), HIS-3C-Nse6, copies: 1;1, label: fluorescein on position 5 of thymine, 6-carbon spacer, 48 bp stem, 4 nt loop AATA, blunt end.

B1: oligonucleotide C, self-annealed dsDNA hairpin (structured_DNA)
DNA: ATCAGTACTTGTCAACACGAGCAGCCCGTATATTCTCCTACAGCACTAAATATAGTGCTGTAGGAGAATATACGGGCTGCTCGTGTTGACAAGTACTGAT
modifications: internal fluorescein-dT (iFT), between S3 and S4 (position 51, in loop)
Regarding B1, the binding result in data set [1] and in data set [3] was “no binding” throughout. In addition, the Kd in data set [2] is roughly 220 nM.
